Assay results as given in the supplement of paper PMC6755084.

B1: F1*; the commonest letter at each place (parent)
chain: GAGACCGCAACTGAAAAGTTGTTATCACTTGTCGTAAGACACTTTGGATGGGTTGAAGTTCTGCACGTAGAAGCAAAAGGC

Variants of: B1
Experiment: fraction ligated after 30 min (ligated reads / total reads); higher = more ligase activity
Conditions: with F1*sub RNA substrate (template-directed ligation), 42 °C
Protocol: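 Chip-synthesised pool of F1* ligase ribozyme variants (all single and double substitutions, single, double and triple deletions in the catalytic core and GAA bulge, plus designed variants) was transcribed with T7 and reacted as a pool with excess substrate F1*sub for 30 min at 42 C in 50 mM EPPS pH 8.5, 25 mM MgCl2. Ligated and unligated bands were separated by PAGE, barcoded by RT and deep sequenced; fraction ligated = ligated reads / total reads per variant, relative activity = FL / FL of wild type (0.826). Sequences are the DNA template of the ribozyme.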

Row | Variant | fraction ligated
1 | GAGACCGCAACTGAAAAGTTGTTATTACGTGTCGTAAGACACTTTGGATGGGTTGAAGTTCTGCACGTAGAAGCAAAAGGC | 0.816
2 | GAGACCGCAACTGAAAAGTTGTTATTACATGTCGTAAGACACTTTGGATGGGTTGAAGTTCTGCACGTAGAAGCAAAAGGC | 0.845
3 | GAGACCGCAACTGAAAAGTTGTTATTACCTGTCGTAAGACACTTTGGATGGGTTGAAGTTCTGCACGTAGAAGCAAAAGGC | 0.848
4 | GAGACCGCAACTGAAAAGTTGTTATCCCTTGTCGTAAGACACTTTGGTTGGGTTGAAGTTCTGCACGTAGAAGCAAAAGGC | 0.78
5 | GAGACCGCAACTGAAAAGTTGTTATCCCTTGTCGTAAGACACTTTGGGTGGGTTGAAGTTCTGCACGTAGAAGCAAAAGGC | 0.256
6 | GAGACCGCAACTGAAAAGTTGTTATCCCTTGTCGTAAGACACTTTGGCTGGGTTGAAGTTCTGCACGTAGAAGCAAAAGGC | 0.748
7 | GAGACCGCAACTGAAAAGTTGTTATTACTTGCCGTAAGACACTTTGGATGGGTTGAAGTTCTGCACGTAGAAGCAAAAGGC | 0.792
8 | GAGACCGCAACTGAAAAGTTGTTATTACTTGACGTAAGACACTTTGGATGGGTTGAAGTTCTGCACGTAGAAGCAAAAGGC | 0.701
9 | GAGACCGCAACTGAAAAGTTGTTATTACTTGGCGTAAGACACTTTGGATGGGTTGAAGTTCTGCACGTAGAAGCAAAAGGC | 0.801
10 | GAGACCGCAACTGAAAAGTTGTTATCCTTTGTCGTAAGACACTTTGGATGGGTTGAAGTTCTGCACGTAGAAGCAAAAGGC | 0.819
11 | GAGACCGCAACTGAAAAGTTGTTATCCATTGTCGTAAGACACTTTGGATGGGTTGAAGTTCTGCACGTAGAAGCAAAAGGC | 0.807
12 | GAGACCGCAACTGAAAAGTTGTTATCCGTTGTCGTAAGACACTTTGGATGGGTTGAAGTTCTGCACGTAGAAGCAAAAGGC | 0.807
13 | GAGACCGCAACTGAAAAGTTGTTATCCCTTATCGTAAGACACTTTGGATGGGTTGAAGTTCTGCACGTAGAAGCAAAAGGC | 0.824
14 | GAGACCGCAACTGAAAAGTTGTTATCCCTTCTCGTAAGACACTTTGGATGGGTTGAAGTTCTGCACGTAGAAGCAAAAGGC | 0.835
15 | GAGACCGCAACTGAAAAGTTGTTATCCCTTGTCGTAAGTCACTTTGGATGGGTTGAAGTTCTGCACGTAGAAGCAAAAGGC | 0.789
16 | GAGACCGCAACTGAAAAGTTGTTATCCCTTGTCGTAAGCCACTTTGGATGGGTTGAAGTTCTGCACGTAGAAGCAAAAGGC | 0.785
17 | GAGACCGCAACTGAAAAGTTGTTATCCCTTGTCGTAAGGCACTTTGGATGGGTTGAAGTTCTGCACGTAGAAGCAAAAGGC | 0.809
18 | GAGACCGCAACTGAAAAGTTGTTATCCCTTGTCGTAAGACAGTTTGGATGGGTTGAAGTTCTGCACGTAGAAGCAAAAGGC | 0.831
19 | GAGACCGCAACTGAAAAGTTGTTATCCCTTGTCGTAAGACATTTTGGATGGGTTGAAGTTCTGCACGTAGAAGCAAAAGGC | 0.816
20 | GAGACCGCAACTGAAAAGTTGTTATCCCTTGTCGTAAGACAATTTGGATGGGTTGAAGTTCTGCACGTAGAAGCAAAAGGC | 0.818
21 | GAGACCGCAACTGAAAAGTTGTTATCCCTTGTCGTATGACACTTTGGATGGGTTGAAGTTCTGCACGTAGAAGCAAAAGGC | 0.82
22 | GAGACCGCAACTGAAAAGTTGTTATCCCTTGTCGTAGGACACTTTGGATGGGTTGAAGTTCTGCACGTAGAAGCAAAAGGC | 0.817
23 | GAGACCGCAACTGAAAAGTTGTTATCCCTTGTCGTACGACACTTTGGATGGGTTGAAGTTCTGCACGTAGAAGCAAAAGGC | 0.793

Row | Variant | fraction ligated
24 | GAGACCGCAACTGAAAAGTTGTTATTACTTGTCGTAAGACACGTTGGATGGGTTGAAGTTCTGCACGTAGAAGCAAAAGGC | 0.79
25 | GAGACCGCAACTGAAAAGTTGTTATTACTTGTCGTAAGACACCTTGGATGGGTTGAAGTTCTGCACGTAGAAGCAAAAGGC | 0.788
26 | GAGACCGCAACTGAAAAGTTGTTATTACTTGTCGTAAGACACATTGGATGGGTTGAAGTTCTGCACGTAGAAGCAAAAGGC | 0.827
27 | GAGACCGCAACTGAAAAGTTGTTATTACTTGTCGTAAGACACTTTGGAGGGGTTGAAGTTCTGCACGTAGAAGCAAAAGGC | 0.405
28 | GAGACCGCAACTGAAAAGTTGTTATTACTTGTCGTAAGACACTTTGGACGGGTTGAAGTTCTGCACGTAGAAGCAAAAGGC | 0.122
29 | GAGACCGCAACTGAAAAGTTGTTATTACTTGTCGTAAGACACTTTGGAAGGGTTGAAGTTCTGCACGTAGAAGCAAAAGGC | 0.392
30 | GAGACCGCAACTGAAAAGTTGTTATCCCTTGTCGTAAGACACTTTGGATGGGTTGATGTTCTGCACGTAGAAGCAAAAGGC | 0.807
31 | GAGACCGCAACTGAAAAGTTGTTATCCCTTGTCGTAAGACACTTTGGATGGGTTGAGGTTCTGCACGTAGAAGCAAAAGGC | 0.773
32 | GAGACCGCAACTGAAAAGTTGTTATCCCTTGTCGTAAGACACTTTGGATGGGTTGACGTTCTGCACGTAGAAGCAAAAGGC | 0.787
33 | GAGACCGCAACTGAAAAGTTGTTATTACTTGTCGTAAGACACTTAGGATGGGTTGAAGTTCTGCACGTAGAAGCAAAAGGC | 0.779
34 | GAGACCGCAACTGAAAAGTTGTTATTACTTGTCGTAAGACACTTGGGATGGGTTGAAGTTCTGCACGTAGAAGCAAAAGGC | 0.28
35 | GAGACCGCAACTGAAAAGTTGTTATTACTTGTCGTAAGACACTTCGGATGGGTTGAAGTTCTGCACGTAGAAGCAAAAGGC | 0.524
36 | GAGACCGCAACTGAAAAGTTGTTATTACTTGTCGTAAGACACTTTGGATGGGTTTAAGTTCTGCACGTAGAAGCAAAAGGC | 0.815
37 | GAGACCGCAACTGAAAAGTTGTTATTACTTGTCGTAAGACACTTTGGATGGGTTCAAGTTCTGCACGTAGAAGCAAAAGGC | 0.3
38 | GAGACCGCAACTGAAAAGTTGTTATTACTTGTCGTAAGACACTTTGGATGGGTTAAAGTTCTGCACGTAGAAGCAAAAGGC | 0.811
39 | GAGACCGCAACTGAAAAGTTGTTATCCCTTGTGGTAAGACACTTTGGATGGGTTGAAGTTCTGCACGTAGAAGCAAAAGGC | 0.815
40 | GAGACCGCAACTGAAAAGTTGTTATCCCTTGTAGTAAGACACTTTGGATGGGTTGAAGTTCTGCACGTAGAAGCAAAAGGC | 0.827
41 | GAGACCGCAACTGAAAAGTTGTTATCCCTTGTTGTAAGACACTTTGGATGGGTTGAAGTTCTGCACGTAGAAGCAAAAGGC | 0.795
42 | GAGACCGCAACTGAAAAGTTGTTATCCCTTGTCGTTAGACACTTTGGATGGGTTGAAGTTCTGCACGTAGAAGCAAAAGGC | 0.817
43 | GAGACCGCAACTGAAAAGTTGTTATCCCTTGTCGTGAGACACTTTGGATGGGTTGAAGTTCTGCACGTAGAAGCAAAAGGC | 0.821
44 | GAGACCGCAACTGAAAAGTTGTTATCCCTTGTCGTCAGACACTTTGGATGGGTTGAAGTTCTGCACGTAGAAGCAAAAGGC | 0.793
45 | GAGACCGCAACTGAAAAGTTGTTATCCCTTGTCGTAAGACACTTTGGATGGGTTGAAGTTCTGCACGTAGAAGCAAAAGGC | 0.81
46 | GAGACCGCAACTGAAAAGTTGTTATCCCTTGTCGTAAGATACTTTGGATGGGTTGAAGTTCTGCACGTAGAAGCAAAAGGC | 0.818

Row | Variant | fraction ligated
47 | GAGACCGCAACTGAAAAGTTGTTATCCCTTGTCGTAAGAAACTTTGGATGGGTTGAAGTTCTGCACGTAGAAGCAAAAGGC | 0.817
48 | GAGACCGCAACTGAAAAGTTGTTATCCCTTGTCGTAAGAGACTTTGGATGGGTTGAAGTTCTGCACGTAGAAGCAAAAGGC | 0.783
49 | GAGACCGCAACTGAAAAGTTGTTATTACTTGTCGTAAGACACTTTGGATAGGTTGAAGTTCTGCACGTAGAAGCAAAAGGC | 0.0828
50 | GAGACCGCAACTGAAAAGTTGTTATTACTTGTCGTAAGACACTTTGGATTGGTTGAAGTTCTGCACGTAGAAGCAAAAGGC | 0.238
51 | GAGACCGCAACTGAAAAGTTGTTATTACTTGTCGTAAGACACTTTGGATCGGTTGAAGTTCTGCACGTAGAAGCAAAAGGC | 0.0206
52 | GAGACCGCAACTGAAAAGTTGTTATTACTAGTCGTAAGACACTTTGGATGGGTTGAAGTTCTGCACGTAGAAGCAAAAGGC | 0.832
53 | GAGACCGCAACTGAAAAGTTGTTATTACTCGTCGTAAGACACTTTGGATGGGTTGAAGTTCTGCACGTAGAAGCAAAAGGC | 0.839
54 | GAGACCGCAACTGAAAAGTTGTTATTACTGGTCGTAAGACACTTTGGATGGGTTGAAGTTCTGCACGTAGAAGCAAAAGGC | 0.861
55 | GAGACCGCAACTGAAAAGTTGTTATCCCTTGTCGTAAGACTCTTTGGATGGGTTGAAGTTCTGCACGTAGAAGCAAAAGGC | 0.785
56 | GAGACCGCAACTGAAAAGTTGTTATCCCTTGTCGTAAGACGCTTTGGATGGGTTGAAGTTCTGCACGTAGAAGCAAAAGGC | 0.781
57 | GAGACCGCAACTGAAAAGTTGTTATCCCTTGTCGTAAGACCCTTTGGATGGGTTGAAGTTCTGCACGTAGAAGCAAAAGGC | 0.782
58 | GAGACCGCAACTGAAAAGTTGTTATTACTTGTCGAAAGACACTTTGGATGGGTTGAAGTTCTGCACGTAGAAGCAAAAGGC | 0.854
59 | GAGACCGCAACTGAAAAGTTGTTATTACTTGTCGGAAGACACTTTGGATGGGTTGAAGTTCTGCACGTAGAAGCAAAAGGC | 0.817
60 | GAGACCGCAACTGAAAAGTTGTTATTACTTGTCGCAAGACACTTTGGATGGGTTGAAGTTCTGCACGTAGAAGCAAAAGGC | 0.792
61 | GAGACCGCAACTGAAAAGTTGTTATTACTTGTCGTAAGACACTTTGCATGGGTTGAAGTTCTGCACGTAGAAGCAAAAGGC | 0.0296
62 | GAGACCGCAACTGAAAAGTTGTTATTACTTGTCGTAAGACACTTTGTATGGGTTGAAGTTCTGCACGTAGAAGCAAAAGGC | 0.182
63 | GAGACCGCAACTGAAAAGTTGTTATTACTTGTCGTAAGACACTATGGATGGGTTGAAGTTCTGCACGTAGAAGCAAAAGGC | 0.845
64 | GAGACCGCAACTGAAAAGTTGTTATTACTTGTCGTAAGACACTGTGGATGGGTTGAAGTTCTGCACGTAGAAGCAAAAGGC | 0.836
65 | GAGACCGCAACTGAAAAGTTGTTATTACTTGTCGTAAGACACTCTGGATGGGTTGAAGTTCTGCACGTAGAAGCAAAAGGC | 0.822
66 | GAGACCGCAACTGAAAAGTTGTTATCCCTTGTCGTAAGACACTTTGGATGGGTTGTAGTTCTGCACGTAGAAGCAAAAGGC | 0.787
67 | GAGACCGCAACTGAAAAGTTGTTATCCCTTGTCGTAAGACACTTTGGATGGGTTGGAGTTCTGCACGTAGAAGCAAAAGGC | 0.742
68 | GAGACCGCAACTGAAAAGTTGTTATCCCTTGTCGTAAGACACTTTGGATGGGTTGCAGTTCTGCACGTAGAAGCAAAAGGC | 0.75
